Assay results taken from the RNAGym collection of RNA variant scans (doi:10.1021/acssynbio.7b00057).

B1: Pistol ribozyme (parent)
chain: GGGUCGUUGUUCCAUAAUCGCGUGGAUAUGGCACGCAAGUUUCUACCGGGCACCGUAAAUGUCCGACUGGAGCCGUUCGGGCGGCUAUAAACAGACCUCAGGCCCGAAGCGUGGCGGCACCUGCCGCCGGUGGUAAAAAAGAUCGGAAGAGCACACGUCU

Variants of: B1
Test: aptazyme ON/OFF ratio, guanine; higher = stronger switching; co-transcriptional cleavage with and without guanine

Row | Variant | aptazyme ON/OFF ratio
1 | GGGUCGGUGAAACAUAAUCGCGUGGAUAUGGCACGCAAGUUUCUACCGGGCACCGUAAAUGUCCGACUGGAGCCGUUCGGGCGGCUAUAAACAGACCUCAGGCCCGAAGCGUGGCGGCACCUGCCGCCGGUGGUAAAAAAGAUCGGAAGAGCACACGUCU | 1.07
2 | GGGUCGGUGAUUUAUAAUCGCGUGGAUAUGGCACGCAAGUUUCUACCGGGCACCGUAAAUGUCCGACUGGAGCCGUUCGGGCGGCUAUAAACAGACCUCAGGCCCGAAGCGUGGCGGCACCUGCCGCCGGUGGUAAAAAAGAUCGGAAGAGCACACGUCU | 1.25
3 | GGGUCGGUGAUUAAUAAUCGCGUGGAUAUGGCACGCAAGUUUCUACCGGGCACCGUAAAUGUCCGACUGGAGCCGUUCGGGCGGCUAUAAACAGACCUCAGGCCCGAAGCGUGGCGGCACCUGCCGCCGGUGGUAAAAAAGAUCGGAAGAGCACACGUCU | 1.2
4 | GGGUCGGUGAUUGAUAAUCGCGUGGAUAUGGCACGCAAGUUUCUACCGGGCACCGUAAAUGUCCGACUGGAGCCGUUCGGGCGGCUAUAAACAGACCUCAGGCCCGAAGCGUGGCGGCACCUGCCGCCGGUGGUAAAAAAGAUCGGAAGAGCACACGUCU | 1.22
5 | GGGUCGGUGAUAAAUAAUCGCGUGGAUAUGGCACGCAAGUUUCUACCGGGCACCGUAAAUGUCCGACUGGAGCCGUUCGGGCGGCUAUAAACAGACCUCAGGCCCGAAGCGUGGCGGCACCUGCCGCCGGUGGUAAAAAAGAUCGGAAGAGCACACGUCU | 1.21
6 | GGGUCGGUGAUAUAUAAUCGCGUGGAUAUGGCACGCAAGUUUCUACCGGGCACCGUAAAUGUCCGACUGGAGCCGUUCGGGCGGCUAUAAACAGACCUCAGGCCCGAAGCGUGGCGGCACCUGCCGCCGGUGGUAAAAAAGAUCGGAAGAGCACACGUCU | 1.18
7 | GGGUCGGUGAUAGAUAAUCGCGUGGAUAUGGCACGCAAGUUUCUACCGGGCACCGUAAAUGUCCGACUGGAGCCGUUCGGGCGGCUAUAAACAGACCUCAGGCCCGAAGCGUGGCGGCACCUGCCGCCGGUGGUAAAAAAGAUCGGAAGAGCACACGUCU | 1.12
8 | GGGUCGGUGAUCCAUAAUCGCGUGGAUAUGGCACGCAAGUUUCUACCGGGCACCGUAAAUGUCCGACUGGAGCCGUUCGGGCGGCUAUAAACAGACCUCAGGCCCGAAGCGUGGCGGCACCUGCCGCCGGUGGUAAAAAAGAUCGGAAGAGCACACGUCU | 1.18
9 | GGGUCGGUGAACCAUAAUCGCGUGGAUAUGGCACGCAAGUUUCUACCGGGCACCGUAAAUGUCCGACUGGAGCCGUUCGGGCGGCUAUAAACAGACCUCAGGCCCGAAGCGUGGCGGCACCUGCCGCCGGUGGUAAAAAAGAUCGGAAGAGCACACGUCU | 2.39
10 | GGGUCGGUGAUCAAUAAUCGCGUGGAUAUGGCACGCAAGUUUCUACCGGGCACCGUAAAUGUCCGACUGGAGCCGUUCGGGCGGCUAUAAACAGACCUCAGGCCCGAAGCGUGGCGGCACCUGCCGCCGGUGGUAAAAAAGAUCGGAAGAGCACACGUCU | 1.13
11 | GGGUCGGUGAUCGAUAAUCGCGUGGAUAUGGCACGCAAGUUUCUACCGGGCACCGUAAAUGUCCGACUGGAGCCGUUCGGGCGGCUAUAAACAGACCUCAGGCCCGAAGCGUGGCGGCACCUGCCGCCGGUGGUAAAAAAGAUCGGAAGAGCACACGUCU | 1.12
12 | GGGUCGGUGAUCUAUAAUCGCGUGGAUAUGGCACGCAAGUUUCUACCGGGCACCGUAAAUGUCCGACUGGAGCCGUUCGGGCGGCUAUAAACAGACCUCAGGCCCGAAGCGUGGCGGCACCUGCCGCCGGUGGUAAAAAAGAUCGGAAGAGCACACGUCU | 1.16
13 | GGGUCGGUGAUGCAUAAUCGCGUGGAUAUGGCACGCAAGUUUCUACCGGGCACCGUAAAUGUCCGACUGGAGCCGUUCGGGCGGCUAUAAACAGACCUCAGGCCCGAAGCGUGGCGGCACCUGCCGCCGGUGGUAAAAAAGAUCGGAAGAGCACACGUCU | 1.22
14 | GGGUCGGUGAUUCAUAAUCGCGUGGAUAUGGCACGCAAGUUUCUACCGGGCACCGUAAAUGUCCGACUGGAGCCGUUCGGGCGGCUAUAAACAGACCUCAGGCCCGAAGCGUGGCGGCACCUGCCGCCGGUGGUAAAAAAGAUCGGAAGAGCACACGUCU | 1.16
15 | GGGUCGGUGAUACAUAAUCGCGUGGAUAUGGCACGCAAGUUUCUACCGGGCACCGUAAAUGUCCGACUGGAGCCGUUCGGGCGGCUAUAAACAGACCUCAGGCCCGAAGCGUGGCGGCACCUGCCGCCGGUGGUAAAAAAGAUCGGAAGAGCACACGUCU | 1.21
16 | GGGUCGGUGAUGGAUAAUCGCGUGGAUAUGGCACGCAAGUUUCUACCGGGCACCGUAAAUGUCCGACUGGAGCCGUUCGGGCGGCUAUAAACAGACCUCAGGCCCGAAGCGUGGCGGCACCUGCCGCCGGUGGUAAAAAAGAUCGGAAGAGCACACGUCU | 1.2
17 | GGGUCGGUGAUGUAUAAUCGCGUGGAUAUGGCACGCAAGUUUCUACCGGGCACCGUAAAUGUCCGACUGGAGCCGUUCGGGCGGCUAUAAACAGACCUCAGGCCCGAAGCGUGGCGGCACCUGCCGCCGGUGGUAAAAAAGAUCGGAAGAGCACACGUCU | 1.17
18 | GGGUCGGUGAUGAAUAAUCGCGUGGAUAUGGCACGCAAGUUUCUACCGGGCACCGUAAAUGUCCGACUGGAGCCGUUCGGGCGGCUAUAAACAGACCUCAGGCCCGAAGCGUGGCGGCACCUGCCGCCGGUGGUAAAAAAGAUCGGAAGAGCACACGUCU | 1.15
